Our source for the binding result and Kd values is patent US11965030 (Sanofi, dated 2024).

T1: OX40 (UniProt P43489 29-216)
T1 construct: construct not described
T1 sequence (looked up): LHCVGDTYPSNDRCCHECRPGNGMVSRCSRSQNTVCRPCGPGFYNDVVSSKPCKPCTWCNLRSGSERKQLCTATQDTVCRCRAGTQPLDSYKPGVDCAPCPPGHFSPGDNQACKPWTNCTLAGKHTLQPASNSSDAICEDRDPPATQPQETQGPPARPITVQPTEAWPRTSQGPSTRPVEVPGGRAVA

T2: GITR (UniProt Q9Y5U5 26-161, limits assumed)
T2 construct: construct not described; also called Glucocorticoid-Induce TNFR-Related Protein (GITR)
T2 sequence (looked up): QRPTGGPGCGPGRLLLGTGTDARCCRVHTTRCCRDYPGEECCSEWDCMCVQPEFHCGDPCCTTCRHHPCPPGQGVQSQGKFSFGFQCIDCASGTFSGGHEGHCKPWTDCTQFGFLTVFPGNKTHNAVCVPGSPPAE

B1: anti-CD40 × anti-PD-L1 Y-shaped antibody Y30 (bispecific antibody)
light 1: DIQMTQSPSSVSASVGDRVTITCRASQGIYSWLAWYQQKPGKAPNLLIYTASTLQSGVPSRFSGSGSGTDFTLTISSLQPEDFATYYCQQANIFPLTFGGGTKVEIKRTVAAPSVFIFPPSDEQLKSGTASVVCLLNNFYPREAKVQWKVDNALQSGNSQESVTEQDSKDSTYSLSSTLTLSKADYEKHKVYACEVTHQGLSSPVTKSFNRGEC
heavy 1: not shown
heavy 2: not shown
light 2: not shown
notes: CD40 arm wild type (knob); PD-L1 arm S114A,E123K,N137K / T192E,K221E (hole)
B2: GITR (Q38K-Q39E)-(CH1: T192E; CK: N137K, S114A) × OX40 (Q38E-Q39K)-(CH1: L143Q, S188V; CK: V133T, S176V) (closed) (bispecific antibody)
light 1: EIVMTQSPATLSVSPGERATLSCKASQNVGTNVAWYQKKPGQAPRLLIYSASYRYSGIPARFSGSGSGTEFTLTISSLQSEDFAVYYCQQYNTDPLTFGGGTKVEIKRTVAAPAVFIFPPSDEQLKSGTASVVCLLKNFYPREAKVQWKVDNALQSGNSQESVTEQDSKDSTYSLSSTLTLSKADYEKHKVYACEVTHQGLSSPVTKSFNRGEC
heavy: not shown
light 2: not shown
notes: Tandem Fab; also called T3
B3: OX40 (CH1: L143Q, S188V; CK: V133T, S176V) × GITR (CH1: T192E; CK: N137K, S114A) (closed) (bispecific antibody)
light 1: not shown
heavy: not shown
light 2: B2 light 1 with K38Q
notes: Tandem Fab; also called T4
B4: GITR (CH1: T192E; CK: N137K, S114A) × OX40 (CH1: L143Q, S188V; CK: V133T, S176V) (open) (bispecific antibody)
light 1: B2 light 1 with K38Q
heavy: not shown
light 2: not shown
notes: Tandem Fab; LC-2 as printed is the light chain that elsewhere goes with PD1 (EIVLTQ...SSNWPRT), not the OX40 light chain; also called T6
B5: OX40 (Q38E-Q39K)-(CH1: L143Q, S188V; CK: V133T, S176V) × GITR (Q38K-Q39E)-CH1: T192E; CK: N137K, S114A) closed) (bispecific antibody)
light 1: not shown
heavy: not shown
light 2: B2 light 1
notes: Tandem Fab; also called T5
B6: OX40 (CH1: L143Q, S188V; CK: V133T, S176V) × GITR (CH1: T192E; CK: N137K, S114A) (open) (bispecific antibody)
light 1: not shown
heavy: not shown
light 2: B2 light 1 with K38Q
notes: Tandem Fab; also called T8
B7: GITR (Q38K-Q39E)-(CH1: T192E; CK: N137K, S114A) × OX40 (Q38E-Q39K)-(CH1: L143Q, S188V; CK: V133T, S176V) (open) (bispecific antibody)
light 1: B2 light 1
heavy: not shown
light 2: not shown
notes: Tandem Fab; also called T7
B8: OX40 (Q38E-Q39K)-(CH1: L143Q, S188V; CK: V133T, S176V) × GITR (Q38K-Q39E)-(CH1: T192E; CK: N137K, S114A) (open) (bispecific antibody)
light 1: not shown
heavy: not shown
light 2: B2 light 1
notes: Tandem Fab; also called T9
B9: PD-L1 (Q38E-Q39K)-(CH1: L143Q, S188V; CK: V133T, S176V) × OX40 (Q38K-Q39E)-(CH1: T192E; CK: N137K, S114A) (open) (bispecific antibody)
light 1: not shown
heavy: not shown
light 2: B1 light 1 with Q38K, S114A, N137K
notes: Tandem Fab; also called T18
B10: CD40 (Q38E-Q39K)-(CH1: L143Q, S188V; CK: V133T, S176V) × PD-L1 (Q38K-Q39E)-(CH1: T192E; CK: N137K, S114A) (open) (bispecific antibody)
light 1: B1 light 1 with Q38K, S114A, N137K
heavy: not shown
light 2: not shown
notes: Tandem Fab; also called T26
B11: CD40 (Q38E-Q39K)-(CH1: L143Q, S188V; CK: V133T, S176V) × PD-L1 (Q38K-Q39E)-(CH1: T192E; CK: N137K, S114A) (closed) (bispecific antibody)
light 1: B1 light 1 with Q38K, S114A, N137K
heavy: not shown
light 2: not shown
notes: Tandem Fab; Same printed name as T14; also called T22
B12: CD40 (Q38E-Q39K)-(CH1: L143Q, S188V; CK: V133T, S176V) × PD-L1 (Q38K-Q39E)-(CH1: T192E; CK: N137K, S114A) (closed) (bispecific antibody)
light 1: not shown
heavy: not shown
light 2: B1 light 1 with Q38K, S114A, N137K
notes: Tandem Fab; also called T14
B13: CD40 (CH1: L143Q, S188V; CK: V133T, S176V) × PD-L1 (CH1: T192E; CK: N137K, S114A) (closed) (bispecific antibody)
light 1: B1 light 1 with S114A, N137K
heavy: not shown
light 2: not shown
notes: Tandem Fab; also called T13
B14: CD40 (CH1: L143Q, S188V; CK: V133T, S176V) × PD-L1 (CH1: T192E; CK: N137K, S114A) (open) (bispecific antibody)
light 1: B1 light 1 with S114A, N137K
heavy: not shown
light 2: not shown
notes: Tandem Fab; also called T17
B15: PD-L1 (Q38K-Q39E)-(CH1: T192E; CK: N137K, S114A) × CD40 (Q38E-Q39K)-(CH1: L143Q, S188V; CK: V133T, S176V) (open) (bispecific antibody)
light 1: not shown
heavy: not shown
light 2: B1 light 1 with S114A, N137K
notes: Tandem Fab; also called T16

Numbering of substitutions follows the chain as printed. Names and notes keep the numbering of the source.

T4 sequence (Q9NZQ7 19-239 limits assumed): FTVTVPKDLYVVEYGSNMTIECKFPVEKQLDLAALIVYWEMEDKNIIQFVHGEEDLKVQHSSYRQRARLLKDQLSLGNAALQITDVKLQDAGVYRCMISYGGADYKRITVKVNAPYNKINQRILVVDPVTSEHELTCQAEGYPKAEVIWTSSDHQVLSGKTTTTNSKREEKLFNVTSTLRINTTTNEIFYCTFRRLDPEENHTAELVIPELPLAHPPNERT

The target in the first test is T3, CD40 (UniProt P25942 21-193, limits assumed).
T3 construct: construct not described
T3 sequence (P25942 21-193 limits assumed): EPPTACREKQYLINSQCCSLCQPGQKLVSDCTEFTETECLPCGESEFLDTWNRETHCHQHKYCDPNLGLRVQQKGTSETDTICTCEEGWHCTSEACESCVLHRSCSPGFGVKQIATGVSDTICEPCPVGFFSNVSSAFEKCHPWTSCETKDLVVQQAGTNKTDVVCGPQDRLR
The test can be described thus: SPR. Background: SPR reads the build-up and loss of mass on a sensor chip optically.
As for B1, the binding result is reported as “binds”.

A further test addresses T1, OX40. The test can be described thus: SPR (Biacore 3000), column 'Affinity'.
In general, Kd refers to the free concentration of one partner at which half of the binding sites on the other are occupied at equilibrium, for simple one-to-one binding. Read a low Kd as tighter binding. Regarding B2, binding was characterised by a dissociation constant (Kd) of 0.3 nM.

Molecule B3 had a Kd of 0.2 nM.

Turning to B4, the binding result is on record as “no binding”.

Take B5: the Kd was determined as 0.2 nM.

In the case of B6, the Kd was determined as 0.3 nM.

In turn, B7 gave an equilibrium dissociation constant (Kd) of 1 nM.

With B8, binding was characterised by a dissociation constant (Kd) of 0.2 nM.

Another test addresses T4, PD-L1 (UniProt Q9NZQ7 19-239, limits assumed).
T4 construct: construct not described; also called Programmed Cell Death Ligand 1 (PD-L1)
The test can be described thus: SPR (Biacore 3000), column 'Affinity'.
B9 gave a Kd of 0.023 nM.

B10 yielded a Kd of 0.051 nM.

As for B11, the Kd came to 0.058 nM.

On to B12, for which the Kd is 0.019 nM.

In the next test the target is T2, GITR. The test can be described thus: SPR (Biacore 3000), column 'Affinity'.
For the molecule B2, binding was put at a Kd of 0.3 nM.

B3 showed a dissociation constant Kd of 0.9 nM.

B4 gave a dissociation constant (Kd) of 0.5 nM.

For the molecule B5, the equilibrium dissociation constant (Kd) amounted to 0.7 nM.

With B6, the dissociation constant (Kd) came to 0.6 nM.

B7 came in with a Kd of 0.7 nM.

Take B8: binding was put at a Kd of 0.6 nM.

The target of a further test is T3, CD40. The test can be described thus: SPR (Biacore 3000), column 'Affinity'.
B13 returned a Kd of 2.4 nM.

On to B9, for which the dissociation constant Kd is 2.1 nM.

With B10, binding was put at a Kd of 1.6 nM.

As to B14, binding was characterised by a dissociation constant (Kd) of 3.1 nM.

In turn, B15 came in with a Kd of 4 nM.

Regarding B11, the Kd stood at 1.7 nM.

The molecule B12 showed a Kd of 2.4 nM.
